This is an account of results in US20250297021A1.

Several values for one entry are separate records, joined by “and”; a condition that tells them apart may be missing. Equal entries are not always repeated.

Assay [1] deals with monkey BCMA-His protein (monkey). Kind of assay: ELISA, monkey BCMA-His coated; Ab 100 nM. A general note: ELISA stands for enzyme-linked immunosorbent assay.
The target is the same in assay [2]. Kind of assay: ELISA, monkey BCMA-His coated; Ab 0.0001 nM.
Assay [3] has as its target monkey BCMA on cells (monkey). In words: FACS, Flp-in CHO-monkey BCMA cells. (In general: In flow cytometry, cells or beads pass a laser one at a time.)
For assay [4], the target named is monkey BCMA-His protein (monkey). In words: ELISA, monkey BCMA-His coated; Ab 0.01 nM.
The target in assay [5] is human BCMA on cells (human) (UniProt Q02223). Kind of assay: cell ELISA, Flp-inCHO-human BCMA cells; Ab 0.05 nM.
Chain of human BCMA on cells (human) (Q02223 whole entry): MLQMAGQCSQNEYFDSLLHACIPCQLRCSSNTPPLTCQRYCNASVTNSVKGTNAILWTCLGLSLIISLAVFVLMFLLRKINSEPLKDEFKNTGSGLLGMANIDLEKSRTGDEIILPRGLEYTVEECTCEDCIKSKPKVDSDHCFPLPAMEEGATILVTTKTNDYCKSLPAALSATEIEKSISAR
Assay [6] shares this target. In words: FACS, U266 cells.
The target is the same in assay [7]. In words: FACS, U266 cells. This is another data set of the same source.
Assay [8] concerns the target human BCMA-His protein (human) (UniProt Q02223). Kind of assay: ELISA, human BCMA-His coated; Ab 0.01 nM.
The target is the same in assay [9]. Kind of assay: ELISA, human BCMA-His coated; Ab 0.0001 nM.
Assay [10] has as its target human BCMA on cells (human) (UniProt Q02223). Kind of assay: cell ELISA, Flp-inCHO-human BCMA cells; Ab 0.002 nM.
Assay [11] concerns the target monkey BCMA-His protein (monkey). Kind of assay: ELISA, monkey BCMA-His coated; Ab 10 nM.
Assay [12] shares this target. Kind of assay: ELISA, monkey BCMA-His coated; Ab 0.001 nM.
The target is the same in assay [13]. In words: ELISA, monkey BCMA-His coated; Ab 0.001 nM. The source holds these as a separate data set.
The target in assay [14] is human BCMA on cells (human) (UniProt Q02223). In words: cell ELISA, Flp-inCHO-human BCMA cells; Ab 0.01 nM.
Assay [15] has as its target monkey BCMA-His protein (monkey). Kind of assay: ELISA, monkey BCMA-His coated; Ab 100 nM. The source holds these as a separate data set.
The target in assay [16] is human BCMA on cells (human) (UniProt Q02223). Kind of assay: FACS, H929 cells.
The target of assay [17] is human BCMA-His protein (human) (UniProt Q02223). In words: ELISA, human BCMA-His coated; Ab 100 nM.
Chain of human BCMA-His protein (human) (Q02223 1-54 limits assumed): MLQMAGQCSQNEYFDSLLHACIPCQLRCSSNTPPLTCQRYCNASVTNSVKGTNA
In assay [18] the target is human BCMA on cells (human) (UniProt Q02223). In words: cell ELISA, Flp-inCHO-human BCMA cells; Ab 0.14 nM.
The target in assay [19] is human BCMA-His protein (human) (UniProt Q02223). In words: ELISA, human BCMA-His coated; Ab 0.1 nM.
Assay [20] deals with human BCMA on cells (human) (UniProt Q02223). Kind of assay: cell ELISA, Flp-inCHO-human BCMA cells; Ab 3.70 nM.
The target is the same in assay [21]. Kind of assay: cell ELISA, Flp-inCHO-human BCMA cells; Ab 11.11 nM.
For assay [22], the target named is human BCMA-His protein (human) (UniProt Q02223). In words: ELISA, human BCMA-His coated; Ab 0.0001 nM. The source holds these as a separate data set.
The target is the same in assay [23]. Kind of assay: ELISA, human BCMA-His coated; Ab 10 nM.
In assay [24] the target is human BCMA on cells (human) (UniProt Q02223). Kind of assay: cell ELISA, Flp-inCHO-human BCMA cells; Ab 100.00 nM.
For assay [25], the target named is monkey BCMA-His protein (monkey). In words: ELISA, monkey BCMA-His coated; Ab 0.1 nM.
The target is the same in assay [26]. In words: ELISA, monkey BCMA-His coated; Ab 0.1 nM. The source holds these as a separate data set.
Assay [27] has as its target human BCMA on cells (human) (UniProt Q02223). Kind of assay: FACS, RPMI8226 cells.
The target is the same in assay [28]. In words: cell ELISA, Flp-inCHO-human BCMA cells; Ab 1.23 nM.
Assay [29] has as its target human BCMA-His protein (human) (UniProt Q02223). Kind of assay: ELISA, human BCMA-His coated; Ab 0.001 nM.
In assay [30] the target is human BCMA on cells (human) (UniProt Q02223). Kind of assay: cell ELISA, Flp-inCHO-human BCMA cells; Ab 33.33 nM.
Assay [31] shares this target. Kind of assay: FACS, H929 cells. This is another data set of the same source.
Assay [32] has the same target. In words: FACS, RPMI8226 cells. The source holds these as a separate data set.
Assay [33] shares this target. Kind of assay: cell ELISA, Flp-inCHO-human BCMA cells; Ab 0.02 nM.
The target in assay [34] is monkey BCMA-His protein (monkey). In words: ELISA, monkey BCMA-His coated; Ab 10 nM. The source holds these as a separate data set.
In assay [35] the target is human BCMA on cells (human) (UniProt Q02223). Kind of assay: FACS, Flp-in CHO-human BCMA cells.
For assay [36] the target is unchanged. Kind of assay: cell ELISA, Flp-inCHO-human BCMA cells; Ab 0.41 nM.
For assay [37], the target named is monkey BCMA-His protein (monkey). In words: ELISA, monkey BCMA-His coated; Ab 1 nM.
For assay [38], the target named is human BCMA-His protein (human) (UniProt Q02223). Kind of assay: ELISA, human BCMA-His coated; Ab 10 nM. The source holds these as a separate data set.
Assay [39] shares this target. In words: ELISA, human BCMA-His coated; Ab 1 nM.
Assay [40] deals with monkey BCMA-His protein (monkey). Kind of assay: ELISA, monkey BCMA-His coated; Ab 1 nM. This is another data set of the same source.
The target is the same in assay [41]. In words: ELISA, monkey BCMA-His coated; Ab 0.0001 nM. The source holds these as a separate data set.
The target in assay [42] is human BCMA-His protein (human) (UniProt Q02223). In words: competition ELISA vs hAPRIL-biotin on coated human BCMA; antibody 1.23 nM.
Assay [43] has the same target. In words: competition ELISA vs hAPRIL-biotin on coated human BCMA; antibody 0.14 nM.
The target is the same in assay [44]. In words: competition ELISA vs hAPRIL-biotin on coated human BCMA; antibody 33.33 nM.
The target is the same in assay [45]. Kind of assay: competition ELISA vs hAPRIL-biotin on coated human BCMA; antibody 3.70 nM.
The target is the same in assay [46]. In words: competition ELISA vs hAPRIL-biotin on coated human BCMA; antibody 100.00 nM.
Assay [47] shares this target. Kind of assay: competition ELISA vs hAPRIL-biotin on coated human BCMA; antibody 0.41 nM.
The target is the same in assay [48]. In words: competition ELISA vs hAPRIL-biotin on coated human BCMA; antibody 11.11 nM.

Chain of monkey BCMA-His protein (monkey) (A0A2K5 entry or part of it limits assumed): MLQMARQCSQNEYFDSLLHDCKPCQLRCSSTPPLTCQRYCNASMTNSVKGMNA

On to “anti-hel-hIgG1 (negative control antibody against hen egg lysozyme)”, for which the OD450 was 0.08 and 0.18 in assay [1]; 0.06 and 0.08 in assay [2]; 0.04 in assay [4]; 0.08 and 0.09 in assay [5]; 0.05 in assay [8]; 0.05 in assay [9]. Also, the OD450 is 0.08 and 0.09 in [10]; 0.06 in assay [11]; 0.06 and 0.17 in assay [12]; 0.05 in assay [13]; 0.08 and 0.09 in assay [14]; 0.1 in assay [15]. Also, the OD450 was 0.12 in [17]; 0.08 and 0.09 in assay [18]; 0.05 in [19]; 0.08 and 0.09 in [20]; 0.08 and 0.1 in assay [21]; 0.06 and 0.09 in [22]. Moreover, the OD450 in assay [23] was 0.07; in assay [24], 0.11 and 0.28; in [25], 0.05; in assay [26], 0.08 and 0.19; in assay [28], 0.08 and 0.09; in assay [29], 0.05. The OD450 in [30] is 0.09 and 0.14; in assay [33] it was 0.08 and 0.1; in assay [34] it was 0.08; in assay [36] it was 0.08 and 0.09; in assay [37], 0.05; in assay [38] it was 0.27 and 0.12. Besides, the OD450 in [39] was 0.05; in assay [40], 0.06 and 0.17; in assay [41] it was 0.05. The Cell mean fluorescence density in assay [3] is 49; in assay [35], 54.6. Also, the Maximum mean fluorescence intensity in [6] was 86 and 101; in assay [7], 103; in assay [16], 94 and 69; in assay [27], 118; in assay [31], 110; in assay [32] it was 81 and 107.
Take anti-hel-hIgG1 (antibody): the OD450 in assay [42] was 1.43 OD450 and 1.27 OD450 and 1.53 OD450; in assay [43] it was 1.43 OD450 and 1.28 OD450 and 1.63 OD450; in assay [44], 1.41 OD450 and 1.31 OD450 and 1.46 OD450; in assay [45], 1.38 OD450 and 1.29 OD450 and 1.53 OD450; in [46], 1.54 OD450 and 1.45 OD450 and 1.57 OD450; in assay [47] it was 1.41 OD450 and 1.31 OD450 and 1.48 OD450. Besides, the OD450 in [48] was 1.39 OD450 and 1.24 OD450 and 1.51 OD450.
